# Assays:
# RPE-J cells = assay: Immunoblots for autophagy/lysosomal proteins in transfected RPE-J cells; format: cell-based, rat; conditions: RPE-J cells over-expressing CIB2 vs GFP
# Source text: FIG. 12. CIB2 mutant mice have less autophagy/lysosomal proteins, and overexpression of CIB2. in vitro, is sufficient to boost levels of autophagy/lysosomal proteins and clearance of opsin. a. […] Pro-cathepsin D levels were quantified from non-saturated exposures. c. Representative immunoblots for indicated autophagy/lysosomal proteins from RPE-J cells transiently transfected with GFP or CIB2-IRES-GFP. Endogenous CIB2 is observable in long exposure immunoblot, while transiently overexpressed CIB2 is readily observable in short exposure immunoblot. d. Quantification for immunoblots shown in (c). n=5 (LAMP-1) or 4 (ATG5-ATG12) independent transfection experiments. e, Schematic of the pulse-chase phagocytosis assay (left panel)—also see Examples below. […]
# Complementary to the findings of Cib2 mutant mice, over-expressing CIB2 in RPE-J cells increased LAMP-1 and ATG5-ATG12 complex proteins levels (FIG. 12c-d). […] To test this idea, we assessed LC3-II flux. LC3-I is a cytosolic protein which when lipidated with a phosphatidylethanolamine adduct (LC3-II form) localizes to the growing auto/phagosome membrane, and thus can be used as a reliable readout for the dynamic autophagic process (Valapala et al., Autophagy 10, 480-496 (2014); Kim et al., Noncanonical Autophagy Promotes the Visual Cycle. Cell 154, 365-376 (2013); Klionsky et al., Autophagy 12, 1-222 (2016)). […]
# mTORC1 = assay: Phosphoprotein immunoblots of HEK293 cells overexpressing increasing amounts of CIB2, mTORC1 targets; format: cell-based
# Experimental: (§1) FIG. 3. […] Note the stronger interaction between CIB2 and Rheb S20N variant as compared to Q64L variant (GDP vs GTP mimetic, respectively). c, CIB2 preferentially interacts with GDP-loaded Rheb is further confirmed by co-IP experiments of HA-GST-Rheb immobilized on […] and loaded with either GDP or GTPγS, followed by incubation with tdTomato-CIB2 lysate. d, Proposed model of CIB2 function in retinal sensory cells. […] Loss of CIB2 results in reduced autophagy and exacerbated mTORC1 signaling, thus leading to RPE pathology and secondary PR dysfunction. e, f Immunoblots from RPE/choroid lysates from dry AMD or control age-matched donors indicate reduced CIB2 expression, overactive mTORC1 and reduced autophagy, quantified in panel f. Unpaired two-tailed 1 test was used to determine statistical significance. p value of <0.05 (*), <0.01 (**), and <0.001 (***). Please note that one control sample (ψ) is outliner and is highly variant from the rest, Re-quantification, omitting the highly variant control sample, is shown in FIG. 15. g.
# (§2) mTORC1 integrates various metabolic and amino acid signals through its nutrient-sensing arm and growth signals, which converge on the small GTPase Rheb, via the TSC complex (Wolfson et al., Cell Metabolism 26, 301-309 (2017)). We first tested if CIB2 is a specific negative regulator of mTORC1 and/or mTORC2. We used HEK293 cells, because the mTORC1 signaling pathway is well-established in this cell line, and to expand CIB2 functions beyond the RPE.
# 80% confluent HEK293 cells in 10-cm dishes were transfected for co-IP experiments with 10 μg of indicated plasmid/s using the polyethylenimine (PEI) method (3:1::PEI:DNA). 2 plates per condition were used. 36 hr later the plates were chilled on ice, washed once with ice-cold PBS, and cells collected in ice-cold PBS and centrifuged for 2 min at 1500 RPM at 4° C. Cell pellet was then lysed in IP buffer (0.3% CHAPS, 40 mM HEPES, 2.5 mM MgCl2, 1× Protease inhibitors, 1 mM Na orthovanadate, 10 mM Na glycerophosphate, 10 mM NaF) on ice for 20 min, followed by centrifuging at full speed for 20 min at 4° C. […]
# mTORC2 = assay: Phosphoprotein immunoblots of HEK293 cells overexpressing increasing amounts of CIB2, mTORC2 target; format: cell-based
# Experimental: as §1
# as §2, with “We used HEK293 cells, because the mTORC1 signaling pathway is well-established in this cell line, and to expand CIB2 functions beyond the RPE.” left out
molecule,measurement,setting,value
"CIB2: calcium and integrin binding protein 2, over-expressed in cells from plasmid constructs; SEQ ID NO:1 (human), SEQ ID NO:2 (mouse) (protein, left off: large carriers) MGNKQTIFTEEQLDNYQDCTFFNKKDILKLHARFYELAPNLVPMDYRKSPIVHVPMSLIIQMPELRENPFKERIVEAFSEDGEGNLTFNDFVDMFSVLCESAPRELKANYAFKIYDFNTDNFICKEDLEMTLARLTKSELEEDEVVLVCDKVIEEADLDGDGKLGFADFEDMIAKAPDFLSTFHIRI",ATG5-ATG12 complex protein levels,RPE-J cells,increased
same,LAMP-1 protein levels,RPE-J cells,increased
same,Phosphorylation of 4E-BP1,mTORC1,decreasing phosphorylation
same,Phosphorylation of S6K1,mTORC1,decreasing phosphorylation
same,Phosphorylation of ULK1,mTORC1,decreasing phosphorylation
same,mTORC2-mediated phosphorylation of AKT,mTORC2,no changes

# — US12661385B2, “Modulation of mTORCI activity and autophagy via CIB2-RHEB interaction” (University of Maryland, Baltimore, priority 2018, dated 2026)
